Data on one protein can be found in publication PMC3034190 (Molecular Microbiology, 2010).

This data set deals with the molecule itself. Nature of the data set: crystal structure.

B1: MSMEG_3380 (FDR-B family F420H2-dependent reductase), recombinant, for crystallography (enzyme)
chain: MVAVPEGYESLLERPLYGHLATVRPDGTPQVNAMWFAWDGEVLRFTHTTKRQKYRNIKANPAVAMSVIDPDNPYRYLEVRGLVEDIVPDPTGAFYLKLNDRYDGPLTEPPADKADRVIIVVRPTAFSKQ
modifications: seleno-methionine labelled
For the protein B1, the binding result is recorded as “binds”.
